To fix the notation:
T1: recombinant monkey TfR (r monkey TfR: Sino Biological Inc.), crab-eating monkey TfR extracellular region with … (crab-eating monkey (Macaca fascicularis))
T1 construct: Bought from Sino Biological; also called r monkey TfR-ECD (Histag); not shown: histidine tag at the N-terminus
T1 chain: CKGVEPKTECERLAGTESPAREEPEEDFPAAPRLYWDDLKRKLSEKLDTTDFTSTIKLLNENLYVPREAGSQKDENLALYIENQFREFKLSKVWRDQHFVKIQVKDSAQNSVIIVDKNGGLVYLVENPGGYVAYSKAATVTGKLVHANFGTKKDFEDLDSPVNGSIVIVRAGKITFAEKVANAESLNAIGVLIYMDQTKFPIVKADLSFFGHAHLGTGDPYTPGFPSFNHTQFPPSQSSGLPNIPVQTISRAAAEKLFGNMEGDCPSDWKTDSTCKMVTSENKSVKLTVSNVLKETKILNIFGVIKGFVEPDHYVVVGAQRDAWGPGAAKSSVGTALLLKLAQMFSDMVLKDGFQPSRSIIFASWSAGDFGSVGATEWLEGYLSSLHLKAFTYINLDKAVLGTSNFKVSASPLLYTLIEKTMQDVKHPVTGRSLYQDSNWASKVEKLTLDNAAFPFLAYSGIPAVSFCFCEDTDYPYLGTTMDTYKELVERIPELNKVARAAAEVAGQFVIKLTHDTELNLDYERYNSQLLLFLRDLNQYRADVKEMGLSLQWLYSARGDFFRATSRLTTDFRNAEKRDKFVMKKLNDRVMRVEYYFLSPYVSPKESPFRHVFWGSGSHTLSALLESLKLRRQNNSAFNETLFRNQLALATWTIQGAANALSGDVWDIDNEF

B1: Fab GS3-NAGLU (other)
light: DIVMTQTPLSLSVTPGQPASISCRSSQSLVHSNGNTYLHWYLQKPGQSPQLLIYKVSNRFSGVPDRFSGSGSGTDFTLKISRVEAEDVGVYYCSQSTHVPWTFGQGTKVEIKRTVAAPSVFIFPPSDEQLKSGTASVVCLLNNFYPREAKVQWKVDNALQSGNSQESVTEQDSKDSTYSLSSTLTLSKADYEKHKVYACEVTHQGLSSPVTKSFNRGEC
heavy: EVQLVQSGAEVKKPGESLKISCKGSGYSFMNYWLGWVRQMPGKGLEWMGDIYPGGDYPTYSEKFKVQVTISADKSISTAYLQLSSLKASDTAMYYCARSGNYDEVAYWGQGTLVTVSSASTKGPSVFPLAPSSKSTSGGTAALGCLVKDYFPEPVTVSWNSGALTSGVHTFPAVLQSSGLYSLSSVVTVPSSSLGTQTYICNVNHKPSNTKVDKKVEPKSCDKTHTGGGGSGGGGSGGGGSDEAREAAAVRALVARLLGPGPAADFSVSVERALAAKPGLDTYSLGGGGAARVRVRGSTGVAAAAGLHRYLRDFCGCHVAWSGSQLRLPRPLPAVPGELTEATPNRYRYYQNVCTQSYSFVWWDWARWEREIDWMALNGINLALAWSGQEAIWQRVYLALGLTQAEINEFFTGPAFLAWGRMGNLHTWDGPLPPSWHIKQLYLQHRVLDQMRSFGMTPVLPAFAGHVPEAVTRVFPQVNVTKMGSWGHFNCSYSCSFLLAPEDPIFPIIGSLFLRELIKEFGTDHIYGADTFNEMQPPSSEPSYLAAATTAVYEAMTAVDTEAVWLLQGWLFQHQPQFWGPAQIRAVLGAVPRGRLLVLDLFAESQPVYTRTASFQGQPFIWCMLHNFGGNHGLFGALEAVNGGPEAARLFPNSTMVGTGMAPEGISQNEVVYSLMAELGWRKDPVPDLAAWVTSFAARRYGVSHPDAGAAWRLLLRSVYNCSGEACRGHNRSPLVRRPSLQMNTSIWYNRSDVFEAWRLLLTSAPSLATSPAFRYDLLDLTRQAVQELVSLYYEEARSAYLSKELASLLRAGGVLAYELLPALDEVLASDSRFLLGSWLEQARAAAVSEAEADFYEQNSRYQLTLWGPEGNILDYANKQLAGLVANYYTPRWRLFLEALVDSVAQGIPFQQHQFDKNVFQLEQAFVLSKQRYPSQPRGDTVDLAKKIFLKYYPRWVAGSW
notes: also called Fab HC-GS3-NAGLU
B2: Fab GS3-GUSB (other)
light: B1 light
heavy: EVQLVQSGAEVKKPGESLKISCKGSGYSFMNYWLGWVRQMPGKGLEWMGDIYPGGDYPTYSEKFKVQVTISADKSISTAYLQLSSLKASDTAMYYCARSGNYDEVAYWGQGTLVTVSSASTKGPSVFPLAPSSKSTSGGTAALGCLVKDYFPEPVTVSWNSGALTSGVHTFPAVLQSSGLYSLSSVVTVPSSSLGTQTYICNVNHKPSNTKVDKKVEPKSCDKTHTGGGGSGGGGSGGGGSLQGGMLYPQESPSRECKELDGLWSFRADFSDNRRRGFEEQWYRRPLWESGPTVDMPVPSSFNDISQDWRLRHFVGWVWYEREVILPERWTQDLRTRVVLRIGSAHSYAIVWVNGVDTLEHEGGYLPFEADISNLVQVGPLPSRLRITIAINNTLTPTTLPPGTIQYLTDTSKYPKGYFVQNTYFDFFNYAGLQRSVLLYTTPTTYIDDITVTTSVEQDSGLVNYQISVKGSNLFKLEVRLLDAENKVVANGTGTQGQLKVPGVSLWWPYLMHERPAYLYSLEVQLTAQTSLGPVSDFYTLPVGIRTVAVTKSQFLINGKPFYFHGVNKHEDADIRGKGFDWPLLVKDFNLLRWLGANAFRTSHYPYAEEVMQMCDRYGIVVIDECPGVGLALPQFFNNVSLHHHMQVMEEVVRRDKNHPAVVMWSVANEPASHLESAGYYLKMVIAHTKSLDPSRPVTFVSNSNYAADKGAPYVDVICLNSYYSWYHDYGHLELIQLQLATQFENWYKKYQKPIIQSEYGAETIAGFHQDPPLMFTEEYQKSLLEQYHLGLDQKRRKYVVGELIWNFADFMTEQSPTRVLGNKKGIFTRQRQPKSAAFLLRERYWKIANETRYPHSVAKSQCLENSLFT
notes: also called Fab HC-GS3-GUSB
B3: Fab GS3-AC (other)
light: B1 light
heavy: EVQLVQSGAEVKKPGESLKISCKGSGYSFMNYWLGWVRQMPGKGLEWMGDIYPGGDYPTYSEKFKVQVTISADKSISTAYLQLSSLKASDTAMYYCARSGNYDEVAYWGQGTLVTVSSASTKGPSVFPLAPSSKSTSGGTAALGCLVKDYFPEPVTVSWNSGALTSGVHTFPAVLQSSGLYSLSSVVTVPSSSLGTQTYICNVNHKPSNTKVDKKVEPKSCDKTHTGGGGSGGGGSGGGGSQHAPPWTEDCRKSTYPPSGPTYRGAVPWYTINLDLPPYKRWHELMLDKAPVLKVIVNSLKNMINTFVPSGKIMQVVDEKLPGLLGNFPGPFEEEMKGIAAVTDIPLGEIISFNIFYELFTICTSIVAEDKKGHLIHGRNMDFGVFLGWNINNDTWVITEQLKPLTVNLDFQRNNKTVFKASSFAGYVGMLTGFKPGLFSLTLNERFSINGGYLGILEWILGKKDVMWIGFLTRTVLENSTSYEEAKNLLTKTKILAPAYFILGGNQSGEGCVITRDRKESLDVYELDAKQGRWYVVQTNYDRWKHPFFLDDRRTPAKMCLNRTSQENISFETMYDVLSTKPVLNKLTVYTTLIDVTKGQFETYLRDCPDPCIGW
notes: also called Fab HC-GS3-AC
B4: Fab GS3-GALC (other)
light: B1 light
heavy: EVQLVQSGAEVKKPGESLKISCKGSGYSFMNYWLGWVRQMPGKGLEWMGDIYPGGDYPTYSEKFKVQVTISADKSISTAYLQLSSLKASDTAMYYCARSGNYDEVAYWGQGTLVTVSSASTKGPSVFPLAPSSKSTSGGTAALGCLVKDYFPEPVTVSWNSGALTSGVHTFPAVLQSSGLYSLSSVVTVPSSSLGTQTYICNVNHKPSNTKVDKKVEPKSCDKTHTGGGGSGGGGSGGGGSYVLDDSDGLGREFDGIGAVSGGGATSRLLVNYPEPYRSQILDYLFKPNFGASLHILKVEIGGDGQTTDGTEPSHMHYALDENYFRGYEWWLMKEAKKRNPNITLIGLPWSFPGWLGKGFDWPYVNLQLTAYYVVTWIVGAKRYHDLDIDYIGIWNERSYNANYIKILRKMLNYQGLQRVKIIASDNLWESISASMLLDAELFKVVDVIGAHYPGTHSAKDAKLTGKKLWSSEDFSTLNSDMGAGCWGRILNQNYINGYMTSTIAWNLVASYYEQLPYGRCGLMTAQEPWSGHYVVESPVWVSAHTTQFTQPGWYYLKTVGHLEKGGSYVALTDGLGNLTIIIETMSHKHSKCIRPFLPYFNVSQQFATFVLKGSFSEIPELQVWYTKLGKTSERFLFKQLDSLWLLDSDGSFTLSLHEDELFTLTTLTTGRKGSYPLPPKSQPFPSTYKDDFNVDYPFFSEAPNFADQTGVFEYFTNIEDPGEHHFTLRQVLNQRPITWAADASNTISIIGDYNWTNLTIKCDVYIETPDTGGVFIAGRVNKGGILIRSARGIFFWIFANGSYRVTGDLAGWIIYALGRVEVTAKKWYTLTLTIKGHFTSGMLNDKSLWTDIPVNFPKNGWAAIGTHSFEFAQFDNFLVEATR
notes: also called Fab HC-GS3-GALC
B5: Fab GS3-FUCA1 (other)
light: B1 light
heavy: EVQLVQSGAEVKKPGESLKISCKGSGYSFMNYWLGWVRQMPGKGLEWMGDIYPGGDYPTYSEKFKVQVTISADKSISTAYLQLSSLKASDTAMYYCARSGNYDEVAYWGQGTLVTVSSASTKGPSVFPLAPSSKSTSGGTAALGCLVKDYFPEPVTVSWNSGALTSGVHTFPAVLQSSGLYSLSSVVTVPSSSLGTQTYICNVNHKPSNTKVDKKVEPKSCDKTHTGGGGSGGGGSGGGGSQPPRRYTPDWPSLDSRPLPAWFDEAKFGVFIHWGVFSVPAWGSEWFWWHWQGEGRPQYQRFMRDNYPPGFSYADFGPQFTARFFHPEEWADLFQAAGAKYVVLTTKHHEGFTNWPSPVSWNWNSKDVGPHRDLVGELGTALRKRNIRYGLYHSLLEWFHPLYLLDKKNGFKTQHFVSAKTMPELYDLVNSYKPDLIWSDGEWECPDTYWNSTNFLSWLYNDSPVKDEVVVNDRWGQNCSCHHGGYYNCEDKFKPQSLPDHKWEMCTSIDKFSWGYRRDMALSDVTEESEIISELVQTVSLGGNYLLNIGPTKDGLIVPIFQERLLAVGKWLSINGEAIYASKPWRVQWEKNTTSVWYTSKGSAVYAIFLHWPENGVLNLESPITTSTTKITMLGIQGDLKWSTDPDKGLFISLPQLPPSAVPAEFAWTIKLTGVK
notes: also called Fab HC-GS3-FUCA1

Usually Kd stands for a measure of binding affinity in units of concentration. A word on the koff: it is the first-order rate constant of dissociation. One may read the kon as the second-order rate constant of association.

The target of the first experiment is T1, recombinant monkey TfR (r monkey TfR: …). In words: BLI (Octet RED96), His-tagged TfR ECD on Ni-NTA sensor. In general terms: In BLI a coated tip is dipped into the sample, and binding shifts an interference pattern.
Take B1: the equilibrium dissociation constant (Kd) is 2.62 nM, the koff was found to be 0.000402 s⁻¹ and the kon worked out at 154000 M⁻¹ s⁻¹.
For B2, in that order: below 0.001 nM, below 1e-07 s⁻¹ and 250000 M⁻¹ s⁻¹.
For B3, the Kd is around 11.8 nM, the koff is around 0.00327 s⁻¹ and the kon was determined as 277000 M⁻¹ s⁻¹.
Regarding B4, the Kd is 1.4 nM, the koff amounted to 0.000154 s⁻¹ and the kon came to 111000 M⁻¹ s⁻¹.
For B5 the same measures were 0.323 nM, 4.88e-05 s⁻¹ and 151000 M⁻¹ s⁻¹.

Another experiment deals with T2, recombinant human TfR (r human TfR: Sino Biological Inc.), hTfR extracellular region with a histidine tag at … (human, UniProt P02786 89-760).
T2 construct: Bought from Sino Biological; also called r human TfR-ECD (Histag); recombinant hTfR; not shown: histidine tag at the N-terminus
The description is as above.
On to B1, for which the Kd was below 1 pM, the koff was below 1e-07 s⁻¹ and the on-rate constant (kon) came out at 291000 M⁻¹ s⁻¹.
For B2 the same measures were below 1 pM, below 1e-07 s⁻¹ and 449000 M⁻¹ s⁻¹.
For B3 the same measures were 209 pM, 0.000105 s⁻¹ and 501000 M⁻¹ s⁻¹.
Turning to B4, the Kd is below 1 pM, the off-rate (koff) is below 1e-07 s⁻¹ and the kon stood at 224000 M⁻¹ s⁻¹.
For B5, in that order: below 1 pM, below 1e-07 s⁻¹ and 282000 M⁻¹ s⁻¹.

Source of the values: patent US20250026846A1 (JCR PHARMACEUTICALS, published 2025).
